# Test results: PMC12483538
# Molecular target: SenDRT9 reverse transcriptase (SenRT), affinity tag cleaved, in complex with its ncRNA (Salmonella enterica)
# Experiment: cryo-EM structure; 2.5 uM tag-cleaved DRT9 RT-ncRNA complex (hexamer) on Quantifoil grids; D3 symmetry imposed, 2.59 A
substance,measurement,value
"SenDRT9 reverse transcriptase (SenRT), affinity tag cleaved, in complex with its ncRNA (enzyme)",stoichiometry N,6
